According to patent US20210347873A1 (SHANGHAI PHARMAEXPLORER, published 2021):

Columns and labels:
mouse BLyS protein = mouse BLyS protein (mouse, UniProt Q9WU72 69-309); test: cell-based or functional assay
[1] = biological target: T1, human BLyS (full length, arginine to histidine at position 132) on CHO-K1 cells (human, UniProt Q9Y275 1-285); test: flow cytometry, CHO-K1 hBLyS cells, antibody 0 nM
T1 construct: also called hBLyS; CHO-K1 hBLyS
Procedure: (§1) The medium was aspirated completely, and the cells were rinsed once with PBS buffer (purchased from Invitrogen) and then treated with cell dispersion solution (TrypLE™ Express Enzyme, purchased from Life technology) and collected. The detailed steps are as follows: the cells were rinsed once with PBS buffer, after counting, the cells were diluted to 2×10⁶ cells/ml with PBS buffer, blocked with 2% (w/w) fetal bovine serum and incubated on ice for 30 minutes. 200 μL of which per well was aliquoted into a 96-well FACS plate and centrifuged at 2000 rpm at 4° C., then each 100 μL of the lead antibodies obtained from Embodiment 1 and 2 were aliquoted into each well and incubated on ice for 1 hour. […] After centrifuged and rinsed 3 times with FACS buffer, cells were suspended with 200 μL of FACS buffer and the results were detected and analyzed by FACS (FACS Calibur, purchased from BD). It was shown in Tables 12-13 that the lead antibody could bind to human BLyS protein on the cell surface and the lead antibody could cross-react with cynomolgus BLyS. The data in the table is MFI, the average fluorescence intensity of the cell population.

[2] = biological target: T1, human BLyS (full length, arginine to …); test: flow cytometry, CHO-K1 hBLyS cells, antibody 13.3 nM
Procedure: as §1

[3] = biological target: T1, human BLyS (full length, arginine to …); test: flow cytometry, CHO-K1 hBLyS cells, antibody 2.67 nM
Procedure: as §1

[4] = biological target: T1, human BLyS (full length, arginine to …); test: flow cytometry, CHO-K1 hBLyS cells, antibody 66.7 nM
Procedure: as §1

[5] = biological target: T2, cynomolgus BLyS (full length, arginine to histidine at position 132) on CHO-K1 cells (cynomolgus, UniProt Q9Y275 1-285 (human entry)); test: flow cytometry, CHO-K1 cynoBLyS cells, antibody 0 nM
T2 construct: also called cyno BLyS; CHO-K1 cynoBLyS
T2 chain: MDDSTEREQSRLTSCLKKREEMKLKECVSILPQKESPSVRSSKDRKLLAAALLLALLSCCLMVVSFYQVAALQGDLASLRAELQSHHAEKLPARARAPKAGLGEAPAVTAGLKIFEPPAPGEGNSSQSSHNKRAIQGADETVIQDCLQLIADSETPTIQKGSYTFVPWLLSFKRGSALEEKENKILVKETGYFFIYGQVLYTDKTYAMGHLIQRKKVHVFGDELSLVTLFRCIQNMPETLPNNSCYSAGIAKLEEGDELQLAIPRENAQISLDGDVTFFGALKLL
Procedure: as §1

[6] = biological target: T1, human BLyS (full length, arginine to …); test: flow cytometry, CHO-K1 hBLyS cells, antibody 0.107 nM
Procedure: as §1

[7] = biological target: T1, human BLyS (full length, arginine to …); test: flow cytometry, CHO-K1 hBLyS cells, antibody 0.534 nM
Procedure: as §1

[8] = biological target: T1, human BLyS (full length, arginine to …); test: flow cytometry, CHO-K1 hBLyS cells, antibody 0.0213 nM
Procedure: as §1

[9] = biological target: T1, human BLyS (full length, arginine to …); test: flow cytometry, CHO-K1 hBLyS cells, antibody 0.00427 nM
Procedure: as §1

[10] = biological target: T2, cynomolgus BLyS (full length, arginine …); test: flow cytometry, CHO-K1 cynoBLyS cells, antibody 13.3 nM
Procedure: as §1

[11] = biological target: T2, cynomolgus BLyS (full length, arginine …); test: flow cytometry, CHO-K1 cynoBLyS cells, antibody 2.67 nM
Procedure: as §1

[12] = biological target: T2, cynomolgus BLyS (full length, arginine …); test: flow cytometry, CHO-K1 cynoBLyS cells, antibody 66.7 nM
Procedure: as §1

[13] = biological target: T2, cynomolgus BLyS (full length, arginine …); test: flow cytometry, CHO-K1 cynoBLyS cells, antibody 0.107 nM
Procedure: as §1

[14] = biological target: T2, cynomolgus BLyS (full length, arginine …); test: flow cytometry, CHO-K1 cynoBLyS cells, antibody 0.534 nM
Procedure: as §1

[15] = biological target: T2, cynomolgus BLyS (full length, arginine …); test: flow cytometry, CHO-K1 cynoBLyS cells, antibody 0.0213 nM
Procedure: as §1

[16] = biological target: T2, cynomolgus BLyS (full length, arginine …); test: flow cytometry, CHO-K1 cynoBLyS cells, antibody 0.00427 nM
Procedure: as §1

mouse BLyS protein, sequence (Q9WU72 69-309): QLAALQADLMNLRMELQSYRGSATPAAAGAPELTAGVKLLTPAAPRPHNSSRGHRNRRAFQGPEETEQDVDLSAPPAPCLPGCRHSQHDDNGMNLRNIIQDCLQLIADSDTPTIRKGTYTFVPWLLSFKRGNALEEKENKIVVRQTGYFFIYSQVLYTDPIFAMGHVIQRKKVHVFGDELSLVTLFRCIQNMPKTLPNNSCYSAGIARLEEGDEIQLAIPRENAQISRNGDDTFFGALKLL
T1 sequence (Q9Y275 whole entry R130H): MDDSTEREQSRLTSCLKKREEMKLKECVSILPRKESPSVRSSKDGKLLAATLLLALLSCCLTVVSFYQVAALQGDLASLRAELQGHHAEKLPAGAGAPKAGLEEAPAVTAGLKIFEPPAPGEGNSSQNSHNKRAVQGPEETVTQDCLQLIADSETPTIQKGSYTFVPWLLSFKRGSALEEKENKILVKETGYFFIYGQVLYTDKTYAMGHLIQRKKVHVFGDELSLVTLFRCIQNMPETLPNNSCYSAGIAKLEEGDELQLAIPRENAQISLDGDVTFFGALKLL

B1: 67A2E1D10 (antibody, V domains shown)
VH: EVQLQQSGAELVKPGASVKLSCTASGFNIKNYYMHWVKQRTEEGLEWIGRIDPEDGETKYAPKFQAKATITADTSSNTAYLQLSSLTSEDTAVYFCARKGYYGNYGAWFAYWGQGTLVTVSA
VL: DIQMTQSPASLSVSVGETVTITCRASEDLYSNLAWYQQKQGKSPQLLVYAATFLADGVPSRFSGSGSGTQYSLKINSLQSEDFGNYYCQHFWGTPPTFGGGTKLEIK
notes: Mouse hybridoma monoclonal antibody purified on Protein G
mouse B lymphocyte proliferation (OD450 nm), antibody 0 nM (mouse BLyS protein): 2120 OD450 nm
mouse B lymphocyte proliferation (OD450 nm), antibody 0.000256 nM (mouse BLyS protein): 2390 OD450 nm
mouse B lymphocyte proliferation (OD450 nm), antibody 0.00128 nM (mouse BLyS protein): 2200 OD450 nm
mouse B lymphocyte proliferation (OD450 nm), antibody 0.0064 nM (mouse BLyS protein): 2110 OD450 nm
mouse B lymphocyte proliferation (OD450 nm), antibody 0.032 nM (mouse BLyS protein): 2260 OD450 nm
mouse B lymphocyte proliferation (OD450 nm), antibody 0.16 nM (mouse BLyS protein): 2330 OD450 nm
mouse B lymphocyte proliferation (OD450 nm), antibody 0.8 nM (mouse BLyS protein): 2490 OD450 nm
mouse B lymphocyte proliferation (OD450 nm), antibody 4 nM (mouse BLyS protein): 2410 OD450 nm
mouse B lymphocyte proliferation (OD450 nm), antibody 20 nM (mouse BLyS protein): 2240 OD450 nm
mouse B lymphocyte proliferation (OD450 nm), antibody 100 nM (mouse BLyS protein): 2070 OD450 nm
MFI [1]: 31.2 MFI
MFI [2]: 371 MFI
MFI [3]: 279 MFI
MFI [4]: 432 MFI
MFI [5]: 20.3 MFI
MFI [6]: 60 MFI
MFI [7]: 129 MFI
MFI [8]: 37.1 MFI
MFI [9]: 33.2 MFI
MFI [10]: 738 MFI
MFI [11]: 518 MFI
MFI [12]: 842 MFI
MFI [13]: 76.6 MFI
MFI [14]: 213 MFI
MFI [15]: 35.3 MFI
MFI [16]: 24.7 MFI

B2: 20D1B6E9E5 (antibody, V domains shown)
VH: EVQLQQSVAELVRPGASVKLSCTASDFNIKNTYIHWVKQRPEQGLEWIGRIDPVNGNTKYAPKFQDKATIIVDTYSNTAYLQLSSLASEDTAVYYCARWPITTIVATDWYFDVWGTGTTVTVSS
VL: DVLMTQTQLALPVRLGEQASISCRSSQSIVNSNGNTYLEWYLQKPGQSPKLLIYKVSNRFSGVPDRFSGSGSGTDFTLKISRVEAEDLGVYYCFQGSHVPWTFGGGTKLEIK
notes: as for B1
mouse B lymphocyte proliferation (OD450 nm), antibody 0 nM (mouse BLyS protein): 2260 OD450 nm
mouse B lymphocyte proliferation (OD450 nm), antibody 0.000256 nM (mouse BLyS protein): 2090 OD450 nm
mouse B lymphocyte proliferation (OD450 nm), antibody 0.00128 nM (mouse BLyS protein): 2170 OD450 nm
mouse B lymphocyte proliferation (OD450 nm), antibody 0.0064 nM (mouse BLyS protein): 2180 OD450 nm
mouse B lymphocyte proliferation (OD450 nm), antibody 0.032 nM (mouse BLyS protein): 2380 OD450 nm
mouse B lymphocyte proliferation (OD450 nm), antibody 0.16 nM (mouse BLyS protein): 2120 OD450 nm
mouse B lymphocyte proliferation (OD450 nm), antibody 0.8 nM (mouse BLyS protein): 2480 OD450 nm
mouse B lymphocyte proliferation (OD450 nm), antibody 4 nM (mouse BLyS protein): 2200 OD450 nm
mouse B lymphocyte proliferation (OD450 nm), antibody 20 nM (mouse BLyS protein): 2240 OD450 nm
mouse B lymphocyte proliferation (OD450 nm), antibody 100 nM (mouse BLyS protein): 1920 OD450 nm
MFI [1]: 31.8 MFI
MFI [2]: 498 MFI
MFI [3]: 474 MFI
MFI [4]: 535 MFI
MFI [5]: 19.8 MFI
MFI [6]: 194 MFI
MFI [7]: 402 MFI
MFI [8]: 83.6 MFI
MFI [9]: 46.8 MFI
MFI [10]: 978 MFI
MFI [11]: 933 MFI
MFI [12]: 1030 MFI
MFI [13]: 349 MFI
MFI [14]: 808 MFI
MFI [15]: 118 MFI
MFI [16]: 50.4 MFI

B3: 78C11D2D12 (antibody, V domains shown)
VH: QVQLQQSGAELVRPGTSVKISCKASGYAFTNYWLGWVKQRPGHGLEWIGDIYPGSGNTYYNEKFKGKATLTADKSSSTAYMQLSSLTSEDSAVFFCAAYLYAMDYWGQGTSVTVSS
VL: QIVLTQSPAIMSASPGEKVTITCSASSSVSYMHWFQQKPGTSPKLWIYSASNLASGVPARFSGSGSGTSYSLTISRMEAEDAATYYCQQRGSYPFTFGSGTKLEIK
notes: as for B1
mouse B lymphocyte proliferation (OD450 nm), antibody 0 nM (mouse BLyS protein): 1990 OD450 nm
mouse B lymphocyte proliferation (OD450 nm), antibody 0.000256 nM (mouse BLyS protein): 2210 OD450 nm
mouse B lymphocyte proliferation (OD450 nm), antibody 0.00128 nM (mouse BLyS protein): 2380 OD450 nm
mouse B lymphocyte proliferation (OD450 nm), antibody 0.0064 nM (mouse BLyS protein): 2240 OD450 nm
mouse B lymphocyte proliferation (OD450 nm), antibody 0.032 nM (mouse BLyS protein): 2390 OD450 nm
mouse B lymphocyte proliferation (OD450 nm), antibody 0.16 nM (mouse BLyS protein): 2410 OD450 nm
mouse B lymphocyte proliferation (OD450 nm), antibody 0.8 nM (mouse BLyS protein): 2510 OD450 nm
mouse B lymphocyte proliferation (OD450 nm), antibody 4 nM (mouse BLyS protein): 2340 OD450 nm
mouse B lymphocyte proliferation (OD450 nm), antibody 20 nM (mouse BLyS protein): 2470 OD450 nm
mouse B lymphocyte proliferation (OD450 nm), antibody 100 nM (mouse BLyS protein): 2480 OD450 nm
MFI [1]: 31.2 MFI
MFI [2]: 336 MFI
MFI [3]: 300 MFI
MFI [4]: 356 MFI
MFI [5]: 20.2 MFI
MFI [6]: 132 MFI
MFI [7]: 249 MFI
MFI [8]: 61.3 MFI
MFI [9]: 39.5 MFI
MFI [10]: 636 MFI
MFI [11]: 594 MFI
MFI [12]: 664 MFI
MFI [13]: 235 MFI
MFI [14]: 480 MFI
MFI [15]: 106 MFI
MFI [16]: 37.7 MFI
